Test results as given in the RNAGym collection of RNA variant scans (doi:10.1093/nar/gkz1192).

B1: CPEB3 Ribozyme (parent)
chain: UAACAGGGGGCCACAGCAGAAGCGUUCACGUCGCAGCCCCUGUCAGAUUCUGGUGAAUCUGCGAAUUCUGCUGUAUAUCUC

Variants of: B1
Test: self-cleavage, relative activity (ratio to wild type); higher = more cleavage; in vitro, sequencing
Summary of the method: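 Libraries of CPEB3 self-cleaving ribozyme mutants came from rounds of error-prone PCR and carried barcodes, which DNA sequencing matched to variants. In vitro transcription used T7 RNA polymerase at 37°C for 5 hours, with a further 15 min in DNase I before EDTA stopped the reaction; the ribozymes cleaved during both steps. The RNA was reverse transcribed with template switching and sequenced on Illumina. Relative activity is the cleaved/total read fraction of a variant divided by that of the unmutated ribozyme, averaged over three batches with at least 5 reads.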

In order of falling self-cleavage:
1. C37U G73A  1.43
2. C38U U74C  1.26
3. C37G U80A  1.18
4. C37U U74A  1.17
5. C37G U80G  1.16
6. C38U U76A  1.16
7. C37G U72C  1.14
8. C37G U74A  1.13
9. C37U U74C  1.12
10. C37U C79A  1.11
11. C38U U74A  1.1
12. C37U C79U  1.03
13. C38U U72C  1.01
14. C38U U76C  1.01
15. C37U U78G  1
16. C37G U80C  1
17. C37U U80A  0.99
18. C37U G52A  0.93
19. C37G U72A  0.92
20. C37U A77U  0.91
21. C38A G73U  0.91
22. C37G U74C  0.9
23. C38U  0.9
24. C38U G53A  0.89
25. C37U U41C  0.89
26. C37U G55U  0.88
27. C38U U41C  0.87
28. C38U U54A  0.85
29. C37U G63U  0.84
30. C38U A64C  0.82
31. C37U U54A  0.82
32. C38U G55U  0.8
33. C37U  0.79
34. C37U U54C  0.79
35. C37U U72C  0.79
36. C37U A77G  0.78
37. C37U U80C  0.74
38. C38U A77G  0.74
39. C38U U54C  0.68
40. C37G U78C  0.68
41. C37U U51C  0.67
42. C38U A47G  0.66
43. C37U U51G  0.61
44. C38U G63A  0.6
45. C37U A64G  0.6
46. C37U A75G  0.59
47. C37U A47G  0.58
48. C38U A45G  0.58
49. C37U U51A  0.58
50. C37U A57G  0.58
51. C37U U76C  0.57
52. C37U U78C  0.56
53. C38A U54A  0.56
54. C38G U80C  0.56
55. C37U U76A  0.55
56. C37U G63A  0.54
57. C38A U72C  0.53
58. C38U U69A  0.53
59. C38A A47C  0.5
60. C37U A45G  0.5
61. C37U A56U  0.47
62. C37U C50A  0.47
63. C38U U51A  0.46
64. C37U A56G  0.45
65. C38A G73C  0.45
66. C38U A56G  0.43
67. C38A U41C  0.43
68. C38U U69G  0.42
69. C37U U69C  0.42
70. C38U U41G  0.42
71. C38U U41A  0.42
72. C38A U80C  0.41
73. C38U U67A  0.41
74. C37U A45U  0.4
75. C38U G55A  0.4
76. C37U A47U  0.39
77. C38U A57G  0.39
78. C38U A57U  0.39
79. C38A A75U  0.39
80. C38U G70U  0.38
81. C38U U69C  0.38
82. C37U U49A  0.38
83. C37U C71U  0.38
84. C38U A64G  0.37
85. C38U A64U  0.37
86. C38A U60C  0.37
87. C37U U49C  0.37
88. C38U U49G  0.37
89. C38U U72A  0.37
90. C37U U48C  0.36
91. C38A U48A  0.36
92. C38U U48C  0.35
93. C37U U60C  0.35
94. C38U A45U  0.35
95. C38A U72A  0.34
96. C38A U43A  0.34
97. C38G U43C  0.34
98. C38U U49C  0.34
99. C38A A45U  0.33
100. C38U U60C  0.33
101. C38A U78C  0.33
102. C37U G70A  0.32
103. C38U A65G  0.32
104. C37U U43C  0.31
105. C38G A77U  0.31
106. C38A  0.3
107. C37U A45C  0.29
108. C38A U54C  0.29
109. C37U A65G  0.28
110. C38A G42C  0.28
111. C38A A65U  0.28
112. C38U U43C  0.28
113. C38A U74G  0.27
114. C38G A75G  0.27
115. C38A A56U  0.27
116. C38A U49A  0.27
117. C37U U72A  0.27
118. C37U A64U  0.27
119. C38U C39U  0.26
120. C38A A56G  0.26
121. C38G U80A  0.26
122. C38G U49A  0.26
123. C38G  0.26
124. C38U U60G  0.25
125. C37U U66A  0.25
126. C37U U60A  0.24
127. C38U G46A  0.24
128. C38A U58C  0.24
129. C38G A57G  0.23
130. C38A C40U  0.22
131. C38G C59U  0.22
132. C37U C40G  0.22
133. C37U U67C  0.22
134. C37U C59A  0.22
135. C37U C40A  0.21
136. C37U G61A  0.21
137. C37U C71G  0.21
138. C38A A47G  0.2
139. C38A U60A  0.2
140. C37U U69A  0.2
141. C38G A64G  0.2
142. C37U U43G  0.19
143. C38A A57G  0.19
144. C38G U69A  0.19
145. C38A U41A  0.19
146. C38G U41C  0.19
147. C38A U69A  0.19
148. C38U U58C  0.19
149. C38A U51C  0.18
150. C37U U41A  0.18
151. C38A U72G  0.17
152. C38A U51A  0.17
153. C38A U67A  0.17
154. C37U A65U  0.16
155. C38A U49C  0.16
156. C38A U66C  0.15
157. C38A A64C  0.15
158. C38G U43A  0.14
159. C37U C44U  0.13
160. C38A U66A  0.12
161. C38G U67C  0.11
162. C38A U80A  0.11
163. C38A G63U  0.1
164. C38A A56C  0.1
165. C38A A64U  0.09
166. C38U U58G  0.08
167. C38A C40A  0.05
